Laboratory results as given in patent US9050375B2, “Bi-specific digoxigenin binding antibodies” (priority 2009, dated 2015).
“And” between values parts separate entries of the source, which are not always exact repeats. Equal entries are not always repeated.

Key:
MDA-MB-468 cells = experiment: CellTiter Glo Luminescent Cell Viability Assay, doxorubicin; format: cell-based; settings: Homo sapiens, 48 hours
Procedure: (§1) Then, cell viability was assessed by applying the CellTiter Glo Luminescent Cell Viability Assay (Promega, Madison, Wis.).
These experiments included an additional breast tumor cell line MDA-MB-468. […] Thereafter, cell viability was assessed by applying the CellTiter Glo Luminescent Cell Viability Assay (Promega, Madison, Wis.).

KPL-4 cells = experiment: as above; format: cell-based; settings: Homo sapiens, KPL4, 48 hours
Procedure: as §1

H322M cells = experiment: as above; format: cell-based; settings: Homo sapiens, NCI-H322M, 48 hours
Procedure: as §1

[1] = test system: IGF1R expressing H322M tumor xenografts; experiment: Near Infrared Fluorescence Imaging (NIRF) in vivo, H322M xenografts; design: species or system mice; settings: not complexed with antibody; some accumulation in the liver
Procedure: To analyze if the specific antigen binding functionality of the antibody-complexes can be utilized to specifically deliver imaging reagents to tumor cells, we performed Near Infrared Fluorescence Imaging Studies (NIRF) in vivo. […] These xenografts were either expressing the antigen Her2 (KPL4 cells) or the antigen IGF1R (H322M cells). Subsequently NIRF imaging was performed by using the Maestro system from CRI. Animals were placed in a measuring chamber and the fluorescence was measured over a defined spectral wavelength array, depending on the dye. Spectral information of each pixel of the obtained image was analyzed by a special software which allows to separate different pre-defined spectra, e.g. autofluorescence and the signal of the dye. Theses separated specific signals were quantified by the Maestro software in order to compare different samples.
To analyze whether the <Her2>-<Dig>-Dig-siRNA complexes, and <IGF1R>-<Dig>-Dig-siRNA complexes mediate specific targeting of their payload towards antigen expressing cells not only in cell culture experiments but also in live animals, we made use of the fact that siRNAs can simultaneously be labeled with Dig as well as with fluorescence labels. […] The technology that we've applied for this task is Near Infrared Fluorescence Imaging (NIRF) in vivo. […]

[2] = test system: CD22 positive Raji and Ramos cells; experiment: FACS analysis with <CD22>-<DIG> and DIG-Cy5; format: cell-based; settings: 5 μg/ml <CD22>-<DIG>, DIG-Cy5 66.4 nM
Procedure: For these analyses we used CD22 positive Raji and Ramos cells and the bispecific <CD22>-<DIG> antibody. 3×10^5 cells per well of a 96-well-plate were incubated with 5 μg/ml of the <CD22>-<DIG> antibody in FACS buffer (PBS containing 5% FCS). After washing the cells were incubated with DIG-Cy5 in a final concentration of 66.4 nM. After another washing step cells were analysed with the FACS canto II (BD Biosciences).

[3] = Excitation and emission spectra of Cy5, Dig-Cy5 and complex; format: physicochemical
From the text: To evaluate whether digoxygenation of Cy5 alters its fluorescence features, we compared the excitation and emission spectra of Cy5 and compared it with the spectra of the newly generated Dig-Cy5 and with Dig-Cy5 within a complex with bispecific antibodies. […] We conclude that Dig-Cy5 and -complexes can be applied for antibody-mediated targeting and in vivo imaging.

Eg5-siRNA-DIG = experiment: SPR (Biacore) binding to mono-digoxygenated siRNA; settings: 25° C.
Procedure: (§2) For that, binding properties of the recombinant <Dig> derivatives were analyzed by surface plasmon resonance (SPR) technology using a Biacore T100 or Biacore 3000 instrument (GE Healthcare Bio-Sciences AB, Uppsala). […] To perform the binding studies capturing anti-human IgG antibody was immobilized on the surface of a CM5 biosensor chip using amine-coupling chemistry. Flow cells were activated with a 1:1 mixture of 0.1 M N-hydroxysuccinimide and 0.1 M 3-(N,N-dimethylamino)propyl-N-ethylcarbodiimide at a flow rate of 5 μl/min. […] A reference control flow cell was treated in the same way but with vehicle buffers only instead of the capturing antibody. Surfaces were blocked with an injection of 1 M ethanolamine/HCl pH 8.5. […]
(§3) Anti-mouse IgG antibody was immobilized on the surface of a CM5 biosensor chip in the same fashion as described above. […] The samples to be analyzed were diluted in HBS-P (10 mM HEPES, pH 7.4, 150 mM NaCl, 0.005% Surfactant P20) and injected at a flow rate of 5 μl/min. […] Signals were detected at a rate of one signal per second.
(§4) The samples to be analyzed were diluted in HBS-P and injected at a flow rate of 5 μl/min. […]

DIG-siRNA2349 = experiment: SPR binding to DIG-siRNA2349; settings: analyte DIG-siRNA2349; replicate lines; listed as <DIG>hu2
Procedure: For that, binding properties of the recombinant <Dig> derivatives were analyzed by surface plasmon resonance (SPR) technology using a Biacore T100 or Biacore 3000 instrument (GE Healthcare Bio-Sciences AB, Uppsala). This system is well established for the study of molecule interactions. It allows a continuous real-time monitoring of ligand/analyte bindings and thus the determination of association rate constants (ka), dissociation rate constants (kd), and equilibrium constants (KD) in various assay settings. SPR-technology is based on the measurement of the refractive index close to the surface of a gold coated biosensor chip. Changes in the refractive index indicate mass changes on the surface caused by the interaction of immobilized ligand with analyte injected in solution. If molecules bind to immobilized ligand on the surface the mass increases, in case of dissociation the mass decreases. To perform the binding studies capturing anti-human IgG antibody was immobilized on the surface of a CM5 biosensor chip using amine-coupling chemistry. Flow cells were activated with a 1:1 mixture of 0.1 M N-hydroxysuccinimide and 0.1 M 3-(N,N-dimethylamino)propyl-N-ethylcarbodiimide at a flow rate of 5 μl/min. […] A reference control flow cell was treated in the same way but with vehicle buffers only instead of the capturing antibody. Surfaces were blocked with an injection of 1 M ethanolamine/HCl pH 8.5. To compare the binding of the humanized protein variants with that of the murine <Dig> IgG from the original hybridoma 19-11, capturing anti-mouse IgG antibody was immobilized on the surface of a CM5 biosensor chip in the same fashion as described above for the anti-human IgG antibody. To evaluate the functionality of the recombinant <Dig> derivatives, binding of the recombinant hu<Dig> modules, incl. (i) humanized IgG, (ii) fusion proteins harboring hu<Dig> scFv or (iii) disulfide-stabilized scFvs was assayed with different digoxygenated antigens The resulting binding affinities were compared to the binding of the murine ‘wildtype’ DIG-IgG from which the recombinant humanized modules were derived. […]

Eg5-siRNA-(2×)DIG = experiment: SPR (Biacore) binding to bi-digoxygenated siRNA; settings: 25° C., read-out: KD, binding of siRNA-(2x)DIG
Procedure: as §2, §3, §4

DIG-Myoglobin = experiment: SPR binding to mono-digoxygenated protein DIG-myoglobin; settings: analyte DIG-Myoglobin; replicate lines; listed as <DIG>hu2
Procedure: For that, binding properties of the recombinant <Dig> derivatives were analyzed by surface plasmon resonance (SPR) technology using a Biacore T100 or Biacore 3000 instrument (GE Healthcare Bio-Sciences AB, Uppsala). This system is well established for the study of molecule interactions. It allows a continuous real-time monitoring of ligand/analyte bindings and thus the determination of association rate constants (ka), dissociation rate constants (kd), and equilibrium constants (KD) in various assay settings. SPR-technology is based on the measurement of the refractive index close to the surface of a gold coated biosensor chip. Changes in the refractive index indicate mass changes on the surface caused by the interaction of immobilized ligand with analyte injected in solution. If molecules bind to immobilized ligand on the surface the mass increases, in case of dissociation the mass decreases. To perform the binding studies capturing anti-human IgG antibody was immobilized on the surface of a CM5 biosensor chip using amine-coupling chemistry. Flow cells were activated with a 1:1 mixture of 0.1 M N-hydroxysuccinimide and 0.1 M 3-(N,N-dimethylamino)propyl-N-ethylcarbodiimide at a flow rate of 5 μl/min. […] A reference control flow cell was treated in the same way but with vehicle buffers only instead of the capturing antibody. Surfaces were blocked with an injection of 1 M ethanolamine/HCl pH 8.5. To compare the binding of the humanized protein variants with that of the murine <Dig> IgG from the original hybridoma 19-11, capturing anti-mouse IgG antibody was immobilized on the surface of a CM5 biosensor chip in the same fashion as described above for the anti-human IgG antibody. To evaluate the functionality of the recombinant <Dig> derivatives, binding of the recombinant hu<Dig> modules, incl. (i) humanized IgG, (ii) fusion proteins harboring hu<Dig> scFv or (iii) disulfide-stabilized scFvs was assayed with different digoxygenated antigens The resulting binding affinities were compared to the binding of the murine ‘wildtype’ DIG-IgG from which the recombinant humanized modules were derived.
Another SPR study was performed in which the binding affinity of <DIG>-hu2, IGF1R-DIG and <DIG> M-19-11 was compared in terms of binding to the mono-digoxygenated protein DIG-myoglobin.

[4] = SPR (BiaCore) of sequence-optimized anti-Dig modules; format: binding; settings: FIG. 46 c, d, read-out: KD of anti-Dig module
From the text: Further optimization of the humanized VH and VL sequences of the anti-digoxygenin antibody was applied to generate modules with even higher affinity towards digoxygenin. Based upon the experimentally determined as well as in-silico calculated predicted structures (see above, based upon structure modeling without experimental structure determination), we identified three positions in which alterations might affect affinity. These were located at (Kabat positions) Ser49, Ile57 and Ala60 of the VH domain (FIG. 46). Replacement of the amino acid VHSer49 with Ala, VHIle57 with Ala and of VHAla60 with Pro generated antibody derivatives with sequences that are listed as SEQ ID NO 36 and SEQ ID NO 37. […] The relevance of these positions was thereafter confirmed by inspecting the experimentally determined structure of the dig-binding variable region. The digoxygenin binding module with improved affinity can be applied as hapten-binding entity for various bi- and multispecific antibody derivatives.
For that, binding properties of the recombinant <Dig> derivatives were analyzed by surface plasmon resonance (SPR) technology using a Biacore T100 or Biacore 3000 instrument (GE Healthcare Bio-Sciences AB, Uppsala). This system is well established for the study of molecule interactions. […]

With COc1cccc2c1C(=O)c1c(O)c3c(c(O)c1C2=O)C[C@@](O)(C(=O)CO)C[C@@H]3O[C@H]1C[C@H](N)[C@H](O)[C@H](C)O1 [doxorubicin, Doxorubicin] the IC50 (MDA-MB-468 cells) was 17000 nM, the IC50 (KPL-4 cells) was 2600 nM and the IC50 (H322M cells) was 25000 nM.

For CCN1c2ccc(S(=O)(=O)O)cc2C(C)(C)C1/C=C/C=C/C=C1\N(CCCCCC(=O)NCCNC(=O)CO[C@H]2CC[C@@]3(C)[C@H](CC[C@@H]4[C@@H]3C[C@@H](O)[C@]3(C)[C@@H](C5=CC(=O)OC5)CC[C@]43O)C2)c2ccc(S(=O)(=O)O)cc2C1(C)C (stereo partly drawn) [Dig-Cy5], the “tumor specific fluorescence (NIRF) without antibody” value [1] was “no tumor specific fluorescence”, the “binding to Raji or Ramos cells (FACS)” value [2] was “hardly any binding” and the “Emission wavelength (max.)” value [3] was “at 670 nm”. The Excitation wavelength [3] was 575-605 nm.

B1: humanized DIG-IgG: recombinant humanized anti-digoxigenin IgG; Seq. ID. NO. 3-6 (antibody, V domains shown)
VH: QVQLVESGGGLVKPGGSLRLSCAASGFTFSDYAMSWIRQAPGKGLEWVSSINIGATYIYYADSVKGRFTISRDNAKNSLYLQMNSLRAEDTAVYYCARPGSPYEYDKAYYSMAYWGQGTTVTVSS
VL: DIQMTQSPSSLSASVGDRVTITCRASQDIKNYLNWYQQKPGKAPKLLIYYSSTLLSGVPSRFSGSGSGTDFTLTISSLQPEDFATYYCQQSITLPPTFGGGTKVEIKR
notes: recombinant humanized anti-digoxigenin IgG; ID; NO; 3-6
With B1 the Kd (Eg5-siRNA-DIG) was 12 nM, the Kd (DIG-siRNA2349) was 14.5 nM and 15.6 nM and the ka (DIG-siRNA2349) was 645000 M⁻¹ s⁻¹ and 628000 M⁻¹ s⁻¹. For the same molecule, the kd (DIG-siRNA2349) was 0.00937 s⁻¹ and 0.0098 s⁻¹, the Kd (Eg5-siRNA-(2×)DIG) was 0.008 nM and the ka (DIG-Myoglobin) was 620000 M⁻¹ s⁻¹ and 749000 M⁻¹ s⁻¹. The kd (DIG-Myoglobin) was 0.00982 s⁻¹ and 0.00881 s⁻¹ and the Kd [4] was 12 nM.
